Patent US20250042961A1, “P53 PEPTIDOMIMETIC MACROCYCLES” (MERCK SHARP & DOHME LLC, priority 2021, published 2025)
Bridges are numbered along the chain shown (N, C = ends). [ ]: non-standard residue; d: D form. dPhe(4-CF3) = N[C@H](Cc1ccc(C(F)(F)F)cc1)C(=O)O; dTrp(6-F) = N[C@H](Cc1c[nH]c2cc(F)ccc12)C(=O)O; R5 = C=CCCC[C@@](C)(N)C(=O)O; FAM = carboxyfluorescein

T1: MDM4 protein (human), O15151
T1 chain: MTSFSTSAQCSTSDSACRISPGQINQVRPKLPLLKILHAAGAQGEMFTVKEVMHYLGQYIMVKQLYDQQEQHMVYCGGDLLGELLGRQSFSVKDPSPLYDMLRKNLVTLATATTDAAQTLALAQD


Experiments:
[1] = target: MDM2 (in HCT116 cells) (human), Q00987; experiment: cell-based or functional assay
[2] = target: Purified MDM2 (1-125) protein (human MDM2 1-125 sequence comprising a modified TEV cleavage site, pNIC-GST fusion) (human), Q00987; experiment: competitive fluorescence anisotropy (FP) against FAM-labeled 12/1 peptide on MDM2 (1-125); apparent Kd
Sequence of Purified MDM2 (1-125) protein (human MDM2 1-125 sequence comprising a modified TEV cleavage site, pNIC-GST fusion) (human), Q00987 (Q00987 1-125 limits assumed): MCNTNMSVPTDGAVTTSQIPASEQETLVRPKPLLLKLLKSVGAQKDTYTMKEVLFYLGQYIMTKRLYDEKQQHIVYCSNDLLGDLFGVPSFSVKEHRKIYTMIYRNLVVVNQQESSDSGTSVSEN

[3] = target: T1, MDM4 protein (human), O15151; experiment: direct fluorescence anisotropy titration of MDM4 against 50 nM FAM-labeled peptide; apparent Kd, 1:1 model

Row | p53 activity EC50 (µM) (0% FBS, 4 h) [1] | p53 activity EC50 (µM) (10% FBS, 16 h) [1] | Kd [2] [nM] | Kd [3] [nM] | Binder
1 | 50 | > 50 | 21.7 | – | Ac-[dT][dA][dTrp(6-F)][dY][dA][R5][dPhe(4-CF3)][dE][dQ][R5][dL][dS][dA][dA][dA][dA][dA][dA][dA][dA][dA]-NH2 (staple 6-10; also: mixture of cis-trans isomers) [Acetyl-^DPMI-δ-(6-10 olefin staple) (D-K9D-Q, D-R12D-S, 9x(D-A) polypeptide tail)-NH2]
2 | – | – | – | 4 | {FAM}-RFMDYWEGL-NH2 (also: places C-terminal amide at E7) [carboxyfluorescein (FAM)-labeled 12/1 peptide 13 (FAM-…-NH2)]
3 | 0.61 | 0.28 | 3.2 | – | Ac-[dT][dA][dTrp(6-F)][dY][dA][R5][dPhe(4-CF3)][dE][dQ][R5][dL][dS][dA][dA][dA][dA][dA][dA]-NH2 (staple 6-10; also: mixture of cis-trans isomers) [Acetyl-^DPMI-δ-(6-10 olefin staple) (D-K9D-Q, D-R12D-S, 6x(D-A) polypeptide tail)-NH2]
